According to patent US20180334496A1 (KODIAK SCIENCES, published 2018):

Columns and labels:
[1] = biological target: T1, human complement factor D purified from serum (human, UniProt P00746 26-253); assay: SPR MX96
T1 construct: serum-purified (CompTech); also called hCFD-Comptech; CFD

[2] = biological target: T2, recombinant cynomolgus CFD, His-tagged (cynomolgus); assay: SPR MX96
T2 construct: also called rcyCFD-His; recombinant Cyno-CFD

[3] = biological target: T3, recombinant human CFD, His-tagged (human, UniProt P00746 26-253); assay: SPR MX96
T3 construct: also called rhCFD-His
T3 sequence (P00746 26-253 limits assumed): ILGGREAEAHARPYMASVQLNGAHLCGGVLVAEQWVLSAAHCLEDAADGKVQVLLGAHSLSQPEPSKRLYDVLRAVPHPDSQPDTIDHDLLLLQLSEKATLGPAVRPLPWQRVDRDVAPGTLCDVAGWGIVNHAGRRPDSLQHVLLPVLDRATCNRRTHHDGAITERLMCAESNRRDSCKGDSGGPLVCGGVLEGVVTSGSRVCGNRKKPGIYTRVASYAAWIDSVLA

[4] = biological target: T4, recombinant human CFD mutant 1 (R157A, R207A), His-tagged (human, UniProt P00746 26-253); assay: SPR MX96
T4 construct: positions are linear positions in the mature protein; also called rhCFD-mut1-His; Mut1
T4 sequence (P00746 26-253 R182A/R232A limits assumed): as the sequence (P00746 26-253 limits assumed) above, with R157A, R207A counted along it

[5] = biological target: T1, human complement factor D purified from …; assay: Biacore, protein A capture

T1 sequence (P00746 26-253): as the sequence (P00746 26-253 limits assumed) above

| Binder | Kd [1] [nM] | Kd [2] [nM] | Kd [3] [nM] | Kd [4] [nM] | Kd [5] [nM] | koff [5] [s⁻¹] | kon [5] [M⁻¹ s⁻¹] |
| --- | --- | --- | --- | --- | --- | --- | --- |
| KCD050 (antibody, V domains shown) VH: QVQLKESGPGLVAPSQSLSITCTVSGFSLNSYGVQWVRQPPGQGLEWLVVIWRDGTITYNSALKSRLSINKDNSKSQVFLKMNSLQTDDTAMYYCGRTSHYGNFNYYVMDYWGQGTAVTVSS VL: not shown | 2 | 8.2 | 3.1 | 1.9 |  |  |  |
| KCD052 (antibody, V domains shown) VH: QVQLKESGPGLVAPSQSLSITCTVSGFSLNSYGVQWVRQPPGQGLEWLGVIWRDGSITYNSALKSRLSIRKDNSKSQVFLKMNSLQTDDTAMYYCGRTSHYGNYNYYVMDYWGQGTAVTVSS VL: not shown | 3.1 | 10 | 3.7 | 2.5 |  |  |  |
| KCD119 TAF heavy chain / KCD119 TAF light chain (antibody, V domains shown, humanized full IgG captured on protein A; also called TAF KCD119) VH: EVQLVESGGGLVQPGGSLRLSCAASGYTFTDYYMNWVRQAPGKGLEWIGDINPNTGDTSYNADFKRRFTFSLDTSKSTAYLQMNSLRAEDTAVYYCTREGPSFAYWGQGTLVTVSS VL: DIQLTQSPSSLSASVGDRVTITCRSSQTIVHSNGDTYLEWYQQKPGKAPNLLIYKVSNRFSGVPSRFSGSGSGTDFTLTISSLQPEDFATYYCFQGSHVPPTFGQGTKVEIK |  |  |  |  | 0.23 | 0.00103 | 4.46e+06 |
| KCD015 (antibody, V domains shown) VH: EVQLQQSGAELVKPGASVKLSCTASGFNIKDTYMHWVKQRPEQGLEWIGRIDPANGYTEYDPKFQGKATITADTSSNTAYLQLSSLTSEDSAAYYCTSAMEFWGQGTSVTVSS VL: QIVLTQSPAILSASPGEKVTMTCSASSSVSYIYWYQQKPRSSPRLLIYDTSNLASGVPVRFSGSGSGTSYSLTISRMEAEDAATYYCQQWSSYPFTFGGGTKLEVK | 6.2 | 250 | 4.5 | 3.7 |  |  |  |
| KCD038 (antibody, V domains shown) VH: EVQLQQSGPELVKPGTSMKISCKASGYSFADYTMNWVKQSHGKSLEWIGLINPYNGGTSYNQKFMGKATLTVDKSSSTAYMELLSLTSEDSAVYYCARWGTYSHNYDYAMDYWGQGTSVTVSS VL: DVVMTQTPLSLPVSLGDQASISCRSSQSLVHSNGNTYLYWYFQKPGQSPKFLIYKVSNRFSGISDRFSGSGSGTDFTLKISRVEAEDLGVYFCSQSTHVPPFTFGSGTKLEIK | 37 | 45 | 48 | 84 |  |  |  |
| KCD039 (antibody, V domains shown) VH: EVQLQQSGPEMVKPGASMKISCKASGYSFADYTLNWVKQSHGKSLEWIGLINPYNGGTSYNQKFMGKATLTVDKSSSTAYMELLSLTSEDSAVYYCTRWGTYSHNYDYAMDYWGQGTSVTVSS VL: DVVMTQTPLSLSVSLGDQASISCRSSQSLVHSNGNTYLYWYLQKPGQSPKLLIYKVSNRFSGITDRFSGSGSGTDFTLKISRVEAEDLGVYFCSQSTHVPPFTFGSGTKLEIK | 53 | 39 | 43 | 70 |  |  |  |
| KCD065 (antibody, V domains shown) VH: QVQLQQSGAELARPGASVKMSCKASGYTFTTYTIHWVKQRPGQGLEWIGYINPSSDFTNYNQNFADKATLTADRSSSTAYMQLSSLTSEESAVYYCAIRLGYDRQGWYFDVWGAGTTVTVSS VL: DIVMTQSHKFLSTSLGDRVSITCKASQDVGSAVAWYQQKPGQSPDLLIYWTFTRHTGVPDRFTGSRSGTDFTLTISNVQSGDLADYFCQQYSNYPLTFGGGTKLEIK | 3.3 | 25 | 17 | 25 |  |  |  |
| KCD135 (antibody, V domains shown) VH: EVQLQQSGPELVKPGASVRMSCKASGYIFTDYSIHWVKQSHGKSLEWIGYINPNNGGTSYNQKFKGKATLTVNKSSTTAYMELRSLTSEDSAVYFCARDTTIVGDYWGQGTTLTVSS VL: DIVMTQSQKFMSTSVGDRVSVTCKASQHVGTNVVWYQQKPGQSPKALIYSASYRYSGVPDRFSGSGSGTDFTLTISNVQSEDLAEYFCQQFNSYPLTFGGGTKLEIK | 21 | 18 | 13 | 15 |  |  |  |

Next, values leading:

| Kd [1] [nM] | Kd [2] [nM] | Kd [3] [nM] | Kd [4] [nM] | Kd [5] [nM] | koff [5] [s⁻¹] | kon [5] [M⁻¹ s⁻¹] | Binder |
| --- | --- | --- | --- | --- | --- | --- | --- |
| 3.5 | 3.6 | 2.9 | 2.9 |  |  |  | KCD210 (antibody, V domains shown) VH: EVQLQQSGPVLVKPGASVTMSCKASGYTFTEYYMNWVKQSHGKSLDWIGVINPYSGGTSYKQKFKDKATLTVDKSSSTAYMELNGLTSEDSAVYFCVRGGLRRNYFDYWGQGTTLTVSS VL: EIVLTQSPALMTASPGEKVTITCSVSSSISSTNLHWYQQKSGTSPKPWIFGTSNLASGVPVRFSGSGSGTSYSLTISNMEAEDAATYYCQQWNSYPFTFGTGTKLEIK |
| 3.7 | 5.3 | 2 | 4.1 |  |  |  | KCD110 (antibody, V domains shown) VH: EVQLQQSGPELVKPGASVKISCKASGYSFTGYYMHWVKQSHGNILDWIGYIDPDNGVSSKNQKFTGKATVTADKSSSTAYMELRSLTSEDSAVYYCAGYYGSSWYWYFDVWGTGTTVTVSS VL: QIVLSQSPAILSASPGEKVTMTCRASSSVSYMHWYQQKPGSSPKPWIYATSNLASGVPARFSGSGSGTSYSLTISRVEAEDAATYYCQQWSSNPYTFGGGTKLEIK |
| 2.6 | 8 | 1.6 | 1.4 |  |  |  | KCD132 (antibody, V domains shown) VH: QVQLQQSGPELVKPGASVKISCKASGYSFTDYYINWVKQRPGQGLEWIGWIFPGSGSTYYNEKFKGKATLTVDKSSSTAYMLLSSLTSEDSAVYFCARTGYYSNLYAVDYWGQGTSVTVSS VL: DIQMTQSPASLSVSVGETVTITCRASENIYSNLAWYQQKQGKSPQLLVYVATNLADGVPSRFSGSGSGTQYSLKINSLQSEDFGNYYCQHFWGTPYTFGGGTKLEMR |
|  |  |  |  | 0.153 | 0.000627 | 4.09e+06 | 54V heavy chain / KCD119 TAF light chain (antibody, V domains shown, IgG; also called 54V/wt) VH: EVQLVESGGGLVQPGGSLRLSCAASGYTFTDYYMNWVRQAPGKGLEWIGDINPVTGDTSYNADFKRRFTFSLDTSKSTAYLQMNSLRAEDTAVYYCTREGPSFAYWGQGTLVTVSS VL: DIQLTQSPSSLSASVGDRVTITCRSSQTIVHSNGDTYLEWYQQKPGKAPNLLIYKVSNRFSGVPSRFSGSGSGTDFTLTISSLQPEDFATYYCFQGSHVPPTFGQGTKVEIK |
|  |  |  |  | 0.0526 | 0.000307 | 5.85e+06 | 54V59D heavy chain / KCD119 TAF light chain (antibody, V domains shown, IgG) VH: EVQLVESGGGLVQPGGSLRLSCAASGYTFTDYYMNWVRQAPGKGLEWIGDINPVTGDTDYNADFKRRFTFSLDTSKSTAYLQMNSLRAEDTAVYYCTREGPSFAYWGQGTLVTVSS VL: DIQLTQSPSSLSASVGDRVTITCRSSQTIVHSNGDTYLEWYQQKPGKAPNLLIYKVSNRFSGVPSRFSGSGSGTDFTLTISSLQPEDFATYYCFQGSHVPPTFGQGTKVEIK |
|  |  |  |  | 0.0949 | 0.000463 | 4.88e+06 | 54V heavy chain / 101V light chain (antibody, V domains shown, IgG) VH: EVQLVESGGGLVQPGGSLRLSCAASGYTFTDYYMNWVRQAPGKGLEWIGDINPVTGDTSYNADFKRRFTFSLDTSKSTAYLQMNSLRAEDTAVYYCTREGPSFAYWGQGTLVTVSS VL: DIQLTQSPSSLSASVGDRVTITCRSSQTIVHSNGDTYLEWYQQKPGKAPNLLIYKVSNRFSGVPSRFSGSGSGTDFTLTISSLQPEDFATYYCFQGSHVPVTFGQGTKVEIK |
|  |  |  |  | 0.0321 | 0.000213 | 6.64e+06 | 54V59D heavy chain / 101V light chain (antibody, V domains shown, IgG) VH: EVQLVESGGGLVQPGGSLRLSCAASGYTFTDYYMNWVRQAPGKGLEWIGDINPVTGDTDYNADFKRRFTFSLDTSKSTAYLQMNSLRAEDTAVYYCTREGPSFAYWGQGTLVTVSS VL: DIQLTQSPSSLSASVGDRVTITCRSSQTIVHSNGDTYLEWYQQKPGKAPNLLIYKVSNRFSGVPSRFSGSGSGTDFTLTISSLQPEDFATYYCFQGSHVPVTFGQGTKVEIK |
| 41 | 52 | 41 | 99 |  |  |  | KCD018 (antibody, V domains shown) VH: QVQLQQSAAELARPGASVKMSCKASGYTFTSYTVHWVKQRPGQGLEWIGYINPSSGFTDYNQKFKDKTTLTADISSSTAYIQLSSLTSEDSAVYYCARRGVNWSWFAYWGQGTLVTVSA VL: NIMMTQSPSSLAVSAGEKVTMSCKSSQSVLYSSNQKNYLAWYQQKPGQSPQLLIYWASTRESGVPERFTGSGSGTDFTLTISSVQAEDLAVYYCHQYLSSWTFGGGTKLEIK |
| 4.4 | 66 | 3.2 | 5.7 |  |  |  | KCD008 (antibody, V domains shown) VH: EVQLQQSGPELVKAGASVKMSCTASGFNIKDTYMHWVKQRPEQGLAWIGRIDPANGNIKYDPKFQGKATITADTSSNTAYLQLSSLTSDDTAVYYCTSAMDYWGQGTSVTVSS VL: QIVLTQSPEIMSASPGEKVTMTCSARSSVSYMYWYQQKPGSSPRLLIYDTSNLASGVPVRFSGSGSGTSYSLTISRMETEDAATYYCQQWSTYPFTFGSGTKLEIK |
| 7.8 | 11 | 13 | 10 |  |  |  | KCD017 (antibody, V domains shown) VH: DVQLQESGPDLVKPSQSLSLTCTVTDYSITSGYSWHWIRQFPGNKLEWLGYIHSSGNTNYNPSLKSRFSITRDTSKNQFFLQLNSVTSEDTATYYCALHYYGSSFGWYFDVWGAGTTVTVSS VL: DIVMTQSHKFMSTSVGDRVYITCKASQDVGTAVAWYQQTSGQSPKLLIYWASTRHTGVPDRFTGSGSGTDFTLTLSNVQSEDLADYFCQQYTSYPLTFGAGTKLELK |
